Measured values taken from article PMC9271601 (Structure (London, England : 1993), 2022).

Experiments:
H7 (SH13) HA probe = H7 (SH13) HA probe (Influenza A virus A/Shanghai/02/2013 …, UniProt R4NN21, strain, biotin (biotin protein ligase, AviTag)); assay: flow cytometry on cells
[1] = biological target: H9N2 A/Hong Kong/1073/99 hemagglutinin trimer, wild type (Influenza A virus A/Hong Kong/1073/99 …, UniProt Q9ICY5, strain); assay: BLI

| Binder | binding result (H7 (SH13) HA probe) | binding result [1] |
| --- | --- | --- |
| 1D12 B cell receptor on the donor's B cell (antibody, V domains shown) VH: QLVQSGAEVKKPGASVKVSCKASGYTFTGYYLHWVRQAPGQGLEWMGRINPDTGGTNYAQKFQGRVSMTRDMSISTHYMELSRLTSDDTAVYYCATKRGAVTAMVYYYFYGMDVWGQGTTVTVSS VL: DIVMTQSPLSLSVTPGEPASISCRSSHSLLHLNGYNYLDWYLQKPGQSPQLLIYLGSNRASGVPDRFSGSGSGTDFTLKISRVEAEDVGIYYCMQALRTPPGLTFGGGTKVDIK | binds | – |
| 315–19-1D12 Fab (Fab, V domains shown) VH: QLVQSGAEVKKPGASVKVSCKASGYTFTGYYLHWVRQAPGQGLEWMGRINPDTGGTNYAQKFQGRVSMTRDMSISTHYMELSRLTSDDTAVYYCATKRGAVTAMVYYYFYGMDVWGQGTTVTVSS VL: DIVMTQSPLSLSVTPGEPASISCRSSHSLLHLNGYNYLDWYLQKPGQSPQLLIYLGSNRASGVPDRFSGSGSGTDFTLKISRVEAEDVGIYYCMQALRTPPGLTFGGGTKVDIK | – | binds |
